B1: N-terminal 3×-FLAG-tagged p52 (WT) [human] / XPB [human (endogenous in HEK293T)] (parent complex)
chain 1: MESTPSRGLNRVHLQCRNLQEFLGGLSPGVLDRLYGHPATCLAVFRELPSLAKNWVMRMLFLEQPLPQAAVALWVKKEFSKAQEESTGLLSGLRIWHTQLLPGGLQGLILNPIFRQNLRIALLGGGKAWSDDTSQLGPDKHARDVPSLDKYAEERWEVVLHFMVGSPSAAVSQDLAQLLSQAGLMKSTEPGEPPCITSAGFQFLLLDTPAQLWYFMLQYLQTAQSRGMDLVEILSFLFQLSFSTLGKDYSVEGMSDSLLNFLQHLREFGLVFQRKRKSRRYYPTRLAINLSSGVSGAGGTVHQPGFIVVETNYRLYAYTESELQIALIALFSEMLYRFPNMVVAQVTRESVQQAIASGITAQQIIHFLRTRAHPVMLKQTPVLPPTITDQIRLWELERDRLRFTEGVLYNQFLSQVDFELLLAHARELGVLVFENSAKRLMVVTPAGHSDVKRFWKRQKHSS
chain 2: MGKRDRADRDKKKSRKRHYEDEEDDEEDAPGNDPQEAVPSAAGKQVDESGTKVDEYGAKDYRLQMPLKDDHTSRPLWVAPDGHIFLEAFSPVYKYAQDFLVAIAEPVCRPTHVHEYKLTAYSLYAAVSVGLQTSDITEYLRKLSKTGVPDGIMQFIKLCTVSYGKVKLVLKHNRYFVESCHPDVIQHLLQDPVIRECRLRNSEGEATELITETFTSKSAISKTAESSGGPSTSRVTDPQGKSDIPMDLFDFYEQMDKDEEEEEETQTVSFEVKQEMIEELQKRCIHLEYPLLAEYDFRNDSVNPDINIDLKPTAVLRPYQEKSLRKMFGNGRARSGVIVLPCGAGKSLVGVTAACTVRKRCLVLGNSAVSVEQWKAQFKMWSTIDDSQICRFTSDAKDKPIGCSVAISTYSMLGHTTKRSWEAERVMEWLKTQEWGLMILDEVHTIPAKMFRRVLTIVQAHCKLGLTATLVREDDKIVDLNFLIGPKLYEANWMELQNNGYIAKVQCAEVWCPMSPEFYREYVAIKTKKRILLYTMNPNKFRACQFLIKFHERRNDKIIVFADNVFALKEYAIRLNKPYIYGPTSQGERMQILQNFKHNPKINTIFISKVGDTSFDLPEANVLIQISSHGGSRRQEAQRLGRVLRAKKGMVAEEYNAFFYSLVSQDTQEMAYSTKRQRFLVDQGYSFKVITKLAGMEEEDLAFSTKEEQQQLLQKVLAATDLDAEEEVVAGEFGSRSSQASRRFGTMSSMSGADDTVYMEYHSSRSKAPSKHVHPLFKRFRK

Variants of: B1
Assay: FLAG-IP–Western; HEK293T nuclear extracts; n = 3, biological replicates; read off a plot

In order of rising response:
1. chain 1 MESTPSRGLNRVHLQCRNLQEFLGGLSPGVLDRLYGHPATCLAVFRELPSLAKNWVMRMLFLEQPLPQAAVALWVKKEFSKAQEESTGLLSGLRIWHTQLLPGGLQGLILNPIFRQNLRIALLGGGKAWSDDTSQLGPDKHARDVPSLDKYAEERWEVVLHFMVGSPSAAVSQDLAQLLSQAGLMKSTEPGEPPCITSAGFQFLLLDTPAQLWYFMLQYLQTAQSRGMDLVEILSFLFQLSFSTLGKDYSVEGMSDSLLNFLQHLREFGLVFQRKRKSRRYYPTRLAINLSSGVSGAGGTVHQPGFIVVFTNYRLYAYTESELQIALIALFSEMLYRFPNMVVAQVTRESVQQAIASGITAQQIIHFLRTRAHPVMLKQTPVLPPTITDQIRLWELERDRLRFTEGVLYNQFLSQVDFELLLAHARELGVLVFENSAKRLMVVTPAGHSDVKRFWKRQKHSS [chain 1 E310F]  ~0.01 Normalized Western Signal
2. chain 1 MESTPSRGLNRVHLQCRNLQEFLGGLSPGVLDRLYGHPATCLAVFRELPSLAKNWVMRMLFLEQPLPQAAVALWVKKEFSKAQEESTGLLSGLRIWHTQLLPGGLQGLILNPIFRQNLRIALLGGGKAWSDDTSQLGPDKHARDVPSLDKYAEERWEVVLHFMVGSPSAAVSQDLAQLLSQAGLMKSTEPGEPPCITSAGFQFLLLDTPAQLWYFMLQYLQTAQSRGMDLVEILSFLFQLSFSTLGKDYSVEGMSDSLLNFLQHLREFGLVFQRKRKSRRYYPTRLAINLSSGVSGAGGTVHQPGFIVVETNYRLAAATESELQIALIALFSEMLYRFPNMVVAQVTRESVQQAIASGITAQQIIHFLRTRAHPVMLKQTPVLPPTITDQIRLWELERDRLRFTEGVLYNQFLSQVDFELLLAHARELGVLVFENSAKRLMVVTPAGHSDVKRFWKRQKHSS [chain 1 Y316A, chain 1 Y318A]  ~0.02 Normalized Western Signal
3. chain 1 MESTPSRGLNRVHLQCRNLQEFLGGLSPGVLDRLYGHPATCLAVFRELPSLAKNWVMRMLFLEQPLPQAAVALWVKKEFSKAQEESTGLLSGLRIWHTQLLPGGLQGLILNPIFRQNLRIALLGGGKAWSDDTSQLGPDKHARDVPSLDKYAEERWEVVLHFMVGSPSAAVSQDLAQLLSQAGLMKSTEPGEPPCITSAGFQFLLLDTPAQLWYFMLQYLQTAQSRGMDLVEILSFLFQLSFSTLGKDYSVEGMSDSLLNFLQHLREFGLVFQRKRKSRRYYPTRLAINLSSGVSGAGGTVHQPGFIVVETNYRLYAYTESELQIALIALFSEMLYAAPNMVVAQVTRESVQQAIASGITAQQIIHFLRTRAHPVMLKQTPVLPPTITDQIRLWELERDRLRFTEGVLYNQFLSQVDFELLLAHARELGVLVFENSAKRLMVVTPAGHSDVKRFWKRQKHSS [chain 1 R337A, chain 1 F338A]  ~0.03 Normalized Western Signal

Variants of: B1
Assay: FLAG-IP LC–MS (iBAQ); HEK293T nuclear extracts; n = 3, biological replicates; read off a plot

In order of falling response:
1. chain 1 MESTPSRGLNRVHLQCRNLQEFLGGLSPGVLDRLYGHPATCLAVFRELPSLAKNWVMRMLFLEQPLPQAAVALWVKKEFSKAQEESTGLLSGLRIWHTQLLPGGLQGLILNPIFRQNLRIALLGGGKAWSDDTSQLGPDKHARDVPSLDKYAEERWEVVLHFMVGSPSAAVSQDLAQLLSQAGLMKSTEPGEPPCITSAGFQFLLLDTPAQLWYFMLQYLQTAQSRGMDLVEILSFLFQLSFSTLGKDYSVEGMSDSLLNFLQHLREFGLVFQRKRKSRRYYPTRLAINLSSGVSGAGGTVHQPGFIVVETNYRLYAYTESELQIALIALFSEMLYAAPNMVVAQVTRESVQQAIASGITAQQIIHFLRTRAHPVMLKQTPVLPPTITDQIRLWELERDRLRFTEGVLYNQFLSQVDFELLLAHARELGVLVFENSAKRLMVVTPAGHSDVKRFWKRQKHSS [chain 1 R337A, chain 1 F338A]  ~0.67 Normalized Log2 iBAQ
2. chain 1 MESTPSRGLNRVHLQCRNLQEFLGGLSPGVLDRLYGHPATCLAVFRELPSLAKNWVMRMLFLEQPLPQAAVALWVKKEFSKAQEESTGLLSGLRIWHTQLLPGGLQGLILNPIFRQNLRIALLGGGKAWSDDTSQLGPDKHARDVPSLDKYAEERWEVVLHFMVGSPSAAVSQDLAQLLSQAGLMKSTEPGEPPCITSAGFQFLLLDTPAQLWYFMLQYLQTAQSRGMDLVEILSFLFQLSFSTLGKDYSVEGMSDSLLNFLQHLREFGLVFQRKRKSRRYYPTRLAINLSSGVSGAGGTVHQPGFIVVETNYRLAAATESELQIALIALFSEMLYRFPNMVVAQVTRESVQQAIASGITAQQIIHFLRTRAHPVMLKQTPVLPPTITDQIRLWELERDRLRFTEGVLYNQFLSQVDFELLLAHARELGVLVFENSAKRLMVVTPAGHSDVKRFWKRQKHSS [chain 1 Y316A, chain 1 Y318A]  ~0.63 Normalized Log2 iBAQ
3. chain 1 MESTPSRGLNRVHLQCRNLQEFLGGLSPGVLDRLYGHPATCLAVFRELPSLAKNWVMRMLFLEQPLPQAAVALWVKKEFSKAQEESTGLLSGLRIWHTQLLPGGLQGLILNPIFRQNLRIALLGGGKAWSDDTSQLGPDKHARDVPSLDKYAEERWEVVLHFMVGSPSAAVSQDLAQLLSQAGLMKSTEPGEPPCITSAGFQFLLLDTPAQLWYFMLQYLQTAQSRGMDLVEILSFLFQLSFSTLGKDYSVEGMSDSLLNFLQHLREFGLVFQRKRKSRRYYPTRLAINLSSGVSGAGGTVHQPGFIVVFTNYRLYAYTESELQIALIALFSEMLYRFPNMVVAQVTRESVQQAIASGITAQQIIHFLRTRAHPVMLKQTPVLPPTITDQIRLWELERDRLRFTEGVLYNQFLSQVDFELLLAHARELGVLVFENSAKRLMVVTPAGHSDVKRFWKRQKHSS [chain 1 E310F]  ~0.57 Normalized Log2 iBAQ

Reference: paper PMC9557730 (2022)
